Source: patent US6482925
Substitutions are numbered along the chain they refer to. Names and notes keep the numbering of the source. Where two headings read alike, the source gives them in different places. Each block holds one molecule with its values, some of them ahead of it.

What was measured:
[1] = molecular target: MHC class II molecules on Daudi B cells; test: 51Cr Daudi cell adhesion to transfected Cos-7 cells; cpm relative to wild-type, background not subtracted
[2] = molecular target: MHC class II molecules on Daudi B cells; test: 51Cr Daudi cell adhesion; wild-type expression titrated by DNA quantity
[3] = molecular target: MHC class II molecules on Daudi B cells; test: 51Cr Daudi cell adhesion to transfected Cos-7 cells
[4] = molecular target: MHC class II molecules on Daudi B cells; test: as above; remark: listed apart in the source

Molecule: LAG-3 deletion mutant (D2), deletion of domain D2 (from UniProt P18627 23-492) (receptor)
Adhesion (relative to wild-type LAG-3) [1]: 0.11
reduction of bound cpm against wild-type LAG-3 at comparable expression [2]: 40%

B2: LAG-3 mutant R73E (receptor)
chain: LQPGAEVPVVWAQEGAPAQLPCSPTIPLQDLSLLRRAGVTWQHQPDSGPPAAAPGHPLAPGPHPAAPSSWGPEPRRYTVLSVGPGGLRSGRLPLQPRVQLDERGRQRGDFSLWLRPARRADAGEYRAAVHLRDRALSCRLRLRLGQASMTASPPGSLRASDWVILNCSFSRPDRPASVHWFRNRGQGRVPVRESPHHHLAESFLFLPQVSPMDSGPWGCILTYRDGFNVSIMYNLTVLGLEPPTPLTVYAGAGSRVGLPCRLPAGVGTRSFLTAKWTPPGGGPDLLVTGDNGDFTLRLEDVSQAQAGTYTCHIHLQEQQLNATVTLAIITVTPKSFGSPGSLGKLLCEVTPVSGQERFVWSSLDTPSQRSFSGPWLEAQEAQLLSQPWQCQLYQGERLLGAAVYFTELSSPGAQRSGRAPGALPAGHLLLFLTLGVLSLLLLVTGAFGFHLWRRQWRPRRFSALEQGIHPRRLRAR
fold increase of binding against wild-type LAG-3 [3]: > 3 fold
Adhesion (relative to wild-type LAG-3) [1]: 3.25

B6: LAG-3 mutant D109E (receptor)
chain: B2 chain with E73R, D109E
Adhesion (relative to wild-type LAG-3) [1]: 0.18

B7: LAG-3 mutant D225L (receptor)
chain: B2 chain with E73R, D225L
Adhesion (relative to wild-type LAG-3) [1]: 0.89

B10: LAG-3 mutant R103A (receptor)
chain: B2 chain with E73R, R103A
fold reduction of binding against wild-type LAG-3 [3]: 2 fold
Adhesion (relative to wild-type LAG-3) [1]: 0.49

B11: LAG-3 mutant Y77F (receptor)
chain: B2 chain with E73R, Y77F
Adhesion (relative to wild-type LAG-3) [1]: 0.05
reduction of bound cpm against wild-type LAG-3 at comparable expression [2]: 40%

B12: LAG-3 mutant R75A (receptor)
chain: B2 chain with E73R, R75A
fold increase of binding against wild-type LAG-3 [3]: > 3 fold
Adhesion (relative to wild-type LAG-3) [1]: 4.2

B15: LAG-3 mutant R76E (receptor)
chain: B2 chain with E73R, R76E
fold increase of binding against wild-type LAG-3 [3]: > 3 fold
Adhesion (relative to wild-type LAG-3) [1]: 2.95

B16: LAG-3 double mutant D133A/R134A (receptor)
chain: B2 chain with E73R, D133A, R134A
Adhesion (relative to wild-type LAG-3) [1]: 0.78

B17: LAG-3 mutant H63A (receptor)
chain: B2 chain with H63A, E73R
Adhesion (relative to wild-type LAG-3) [1]: 0.83

B18: LAG-3 mutant R115A (receptor)
chain: B2 chain with E73R, R115A
Adhesion (relative to wild-type LAG-3) [1]: 0.23
reduction of bound cpm against wild-type LAG-3 at comparable expression [2]: 40%

Results, then the molecule that gave them:

Adhesion (relative to wild-type LAG-3) [1]: 0.08
reduction of bound cpm against wild-type LAG-3 at comparable expression [2]: 40%
Molecule: LAG-3 deletion mutant (54/66), deletion of the tip of the external loop (from UniProt P18627 23-492) (receptor)

fold increase of binding against wild-type LAG-3 [3]: > 3 fold
Adhesion (relative to wild-type LAG-3) [1]: 4.1
B1: LAG-3 mutant R75E (receptor)
chain: B2 chain with E73R, R75E

Adhesion (relative to wild-type LAG-3) [1]: 0.18
B3: LAG-3 mutant R88A (receptor)
chain: B2 chain with E73R, R88A

Adhesion (relative to wild-type LAG-3) [1]: 0.89
B4: LAG-3 mutant H56F (receptor)
chain: B2 chain with H56F, E73R

Adhesion (relative to wild-type LAG-3) [1]: 1.02
B5: LAG-3 mutant R107K (receptor)
chain: B2 chain with E73R, R107K

fold reduction of binding against wild-type LAG-3 [3]: 2 fold
Adhesion (relative to wild-type LAG-3) [1]: 0.41
reduction of bound cpm against wild-type LAG-3 at comparable expression [2]: 40%
B8: LAG-3 mutant D30A (receptor)
chain: B2 chain with D30A, E73R

fold reduction of binding against wild-type LAG-3 [3]: 2 fold
fold reduction of binding against wild-type LAG-3 [4]: > 2 fold
Adhesion (relative to wild-type LAG-3) [1]: 0.45
reduction of bound cpm against wild-type LAG-3 at comparable expression [2]: 40%
B9: LAG-3 mutant H56A (receptor)
chain: B2 chain with H56A, E73R

Adhesion (relative to wild-type LAG-3) [1]: 1
B13: wild-type LAG-3 (lymphocyte activation gene 3 protein) (receptor)
chain: B2 chain with E73R

Adhesion (relative to wild-type LAG-3) [1]: 0.92
B14: LAG-3 mutant Q13A (receptor)
chain: B2 chain with Q13A, E73R

Adhesion (relative to wild-type LAG-3) [1]: 0.91
B19: LAG-3 mutant H63F (receptor)
chain: B2 chain with H63F, E73R
